# Measured values published in the supplement of paper PMC10567573.
# B1: LCOR (parent)
# chain: YKVKERLGTLKNPPKKKMKLMSG
# Variants of: B1
# Experiment: protein stability index of a GFP-peptide fusion (GPS, HEK-293T) (PSI 1-6); higher = more stable
# Conditions: c terminus: native
# 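Further: lentivirally expressed fusions sorted by FACS into six bins by GFP to DsRed ratio, PSI derived from sequencing read proportions per bin multiplied by bin number.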
row,Variant,protein stability index
1,YKVKERLGTLKNPPKKKMKCMSG [L20C],1.8
2,YKVKERLGTLKNPPKKKMKSMSG [L20S],3.02
3,YKVKERLGTLKNPPKKKMKHMSG [L20H],3.95
4,YKVKERLGTLKNPPKKKMKTMSG [L20T],2.32
5,YKVKERLGTLKNPPKKKMKPMSG [L20P],3.94
6,YKVKERLGTLKNPPKKKMKGMSG [L20G],3.74
7,YKVKERLGTLKNPPKKKMKWMSG [L20W],2.95
8,YKVKERLGTLKNPPKKKMKVMSG [L20V],2.81
9,YKVKERLGTLKNPPKKKMKIMSG [L20I],2.9
10,YKVKERLGTLKNPPKKKMKDMSG [L20D],3.66
11,YKVKERLGTLKNPPKKKMKAMSG [L20A],3.14
12,YKVKERLGTLKNPPKKKMKEMSG [L20E],3.99
13,YKVKERLGTLKNPPKKKMKLFSG [M21F],2.78
14,YKVKERLGTLKNPPKKKMKLCSG [M21C],4.02
15,YKVKERLGTLKNPPKKKMKLSSG [M21S],1.45
16,YKVKERLGTLKNPPKKKMKLYSG [M21Y],2.34
17,YKVKWRLGTLKNPPKKKMKLMSG [E5W],3.07
18,YKVKQRLGTLKNPPKKKMKLMSG [E5Q],1.22
19,YKVKIRLGTLKNPPKKKMKLMSG [E5I],1.75
20,YKVKARLGTLKNPPKKKMKLMSG [E5A],1.75
21,YKVKFRLGTLKNPPKKKMKLMSG [E5F],2.71
22,YKVKHRLGTLKNPPKKKMKLMSG [E5H],2.85
23,YKVKSRLGTLKNPPKKKMKLMSG [E5S],2.11
24,YKVKGRLGTLKNPPKKKMKLMSG [E5G],2.44
25,YKVKTRLGTLKNPPKKKMKLMSG [E5T],2.22

row,Variant,protein stability index
1,YKVKPRLGTLKNPPKKKMKLMSG [E5P],2.25
2,YKVKERLGTGKNPPKKKMKLMSG [L10G],1.35
3,YKVKERLGTNKNPPKKKMKLMSG [L10N],2.85
4,YKVKERLGTPKNPPKKKMKLMSG [L10P],1.42
5,YKVKERLGTWKNPPKKKMKLMSG [L10W],2.42
6,YKVKERLGTIKNPPKKKMKLMSG [L10I],1.5
7,YKVKERLGTHKNPPKKKMKLMSG [L10H],1.85
8,YKVKERLGTRKNPPKKKMKLMSG [L10R],2.23
9,YKVKERLGTLKNPPKKKMKLMSR [G23R],2.88
10,YKVKERLGTLKNPPKKKMKLMSW [G23W],2.19
11,YKVKERLGTLKNPPKKKMKLMSF [G23F],2.15
12,YKVKERLGTLKNPPKKKMKLMSH [G23H],3.01
13,YKVKERLGTLKNPPKKKMKLMSN [G23N],2.43
14,YKVKERLGTLKNPPKKKMKLMSP [G23P],3.18
15,YKVKERLGTLKNPPKKKMKLMSD [G23D],4.01
16,YKVKERLGTLKNPPKKKMKLMSY [G23Y],2.57
17,YKVKERLGTLKNPPKKKMKLMST [G23T],3
18,YKVKERLGTLKNPPKKKMKLMSI [G23I],2.4
19,YKVKERLGTLKNPPKKKMKLMSK [G23K],3.41
20,YKVKERLGTLKNPPKKKMKLMSM [G23M],3.85
21,YKVKERLGTLKNPPKKKMKLMSE [G23E],3.19
22,YKVKERLGTLKDPPKKKMKLMSG [N12D],1.65
23,YKVKERLGTLKGPPKKKMKLMSG [N12G],2.84
24,YKVKERLGTLKPPPKKKMKLMSG [N12P],2.33
25,YKVKERLGTLKIPPKKKMKLMSG [N12I],1.09

row,Variant,protein stability index
1,YKVKERLGTLKRPPKKKMKLMSG [N12R],3.15
2,YKVKERLGTLKAPPKKKMKLMSG [N12A],2.54
3,YKVKERLGTLKSPPKKKMKLMSG [N12S],1.72
4,YKVKERLGTLKCPPKKKMKLMSG [N12C],3.3
5,YKVKERLGTLKTPPKKKMKLMSG [N12T],3.6
6,YKVKERLETLKNPPKKKMKLMSG [G8E],2.72
7,YKVKERLATLKNPPKKKMKLMSG [G8A],1.85
8,YKVKERLITLKNPPKKKMKLMSG [G8I],1.12
9,YKVKERLTTLKNPPKKKMKLMSG [G8T],2.16
10,YKVKERLNTLKNPPKKKMKLMSG [G8N],1.27
11,YKVKERLMTLKNPPKKKMKLMSG [G8M],1.69
12,YKVKERLPTLKNPPKKKMKLMSG [G8P],3.05
13,YKVKERLRTLKNPPKKKMKLMSG [G8R],1.4
14,YKVKERLVTLKNPPKKKMKLMSG [G8V],2.33
15,YKYKERLGTLKNPPKKKMKLMSG [V3Y],1.69
16,YKWKERLGTLKNPPKKKMKLMSG [V3W],3.38
17,YKRKERLGTLKNPPKKKMKLMSG [V3R],2.51
18,YKQKERLGTLKNPPKKKMKLMSG [V3Q],3.06
19,YKVKERLGTLKNPPKKKMDLMSG [K19D],2.64
20,YKVKERLGTLKNPPKKKMCLMSG [K19C],2.15
21,YKVKERLGTLKNPPKKKMELMSG [K19E],2.5
22,YKVKERLGTLKNPPKKKMNLMSG [K19N],2.96
23,YKVKERLGTLKNPPKKKMVLMSG [K19V],2.77
24,YKVKERLGTLKNPPKKKMWLMSG [K19W],2.52
25,YKVKERLGTLKNPPKKKMILMSG [K19I],3.48

row,Variant,protein stability index
1,YKVKERLGTLKNPPKKKMTLMSG [K19T],2.38
2,YKVKERLGTLKNPPKKKMHLMSG [K19H],2.51
3,YKVKERLGTLKNPPKKKMGLMSG [K19G],1.34
4,YKVKERLGTLKNLPKKKMKLMSG [P13L],2.02
5,YKVKERLGTLKNKPKKKMKLMSG [P13K],3.2
6,YKVKERLGTLKNCPKKKMKLMSG [P13C],2.03
7,YKVKERLGTLKNTPKKKMKLMSG [P13T],2.42
8,YKVKERLGTLKNDPKKKMKLMSG [P13D],1.93
9,YKVKERLGTLKNVPKKKMKLMSG [P13V],1.98
10,YKVKERLGTLKNNPKKKMKLMSG [P13N],2.05
11,YKVKERLGTLKNEPKKKMKLMSG [P13E],2.94
12,YKVKERLGTLKNPPKMKMKLMSG [K16M],1.49
13,YKVKERLGTLKNPPKVKMKLMSG [K16V],1.87
14,YKVKERLGTLKNPPKDKMKLMSG [K16D],2.35
15,YKVKERLGTLKNPPKEKMKLMSG [K16E],2.83
16,YKVKERLGTLKNPPKQKMKLMSG [K16Q],2.17
17,YKVKERLGTLKNPPKFKMKLMSG [K16F],1.45
18,YKVKERLGTLKNPPKYKMKLMSG [K16Y],2.98
19,YKVKERLGTLKNPPKHKMKLMSG [K16H],1.49
20,YKVKERLGTLKNPPKPKMKLMSG [K16P],1.93
21,YKVKERLGTLKNPPKWKMKLMSG [K16W],2.45
22,YKVKERLGTLKNPPKTKMKLMSG [K16T],1.78
